{"source": "paper doi:10.1101/2022.06.02.22275920v1", "about": "“Glucagon/GLP-1 receptor co-agonist NNC9204-1177 reduced body weight in adults with overweight or obesity but was associated with safety issues” (medRxiv, 2022)", "origin": "cited, not measured here", "conditions": "type 2 diabetes; 1.0 mg dose level", "source_text": "Indeed, GLP-1 RAs are known to have chronotropic effects; for example, increases in pulse rate have been reported in participants with type 2 diabetes in a MAD trial with semaglutide and in trials with dulaglutide and a dual glucose-dependent insulinotropic polypeptide (GIP) and GLP-1 RA [33]. However, the increase in heart rate for NN1177 far exceeds that observed for semaglutide; for example in the SUSTAIN 6 cardiovascular outcomes trial for semaglutide in type 2 diabetes, a placebo ...", "data": [{"substance": "semaglutide", "values": [{"measurement": "placebo-corrected heart rate increase", "value": 3.2, "unit": "bpm"}]}]}
